This data set is described as follows: yeast display, Sf9 membrane polyspecificity reagent, FACS + sequencing; frameworks hold sequencing errors. In a few lines:
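Nanobodies came from a synthetic yeast display library in Saccharomyces cerevisiae BJ5465, induced with galactose for 36–48 hours and stained for 1 hour at 4 °C with 10% biotinylated, detergent-solubilized Sf9 membrane reagent. Cells were enriched on streptavidin microbeads and then FACS-sorted, with low and high (top ~1%) gates set on anti-HA fluorescence for expression and streptavidin fluorescence for reagent binding. Each polyreactivity label reflects the gate a clone came from. Genes were amplified by colony PCR, sequenced by MiSeq 2 × 250 and filtered by CDR length.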
With “QVQLVESGGGLVQAGRSLRLSCAASGLIFPWNAMGWYRQAPGKQRELVAAINGRDGSTYYADSVKGRFTISRDNAKNTVYLQMNSLKPEDTAVYYCAKGPSGVRSYREYDSWGQGTQVTVSS”, the “polyreactivity (PSR sort gate)” value was “low polyreactivity”.
As to “QVQLVESGGGLVQAGRSLRLSCAASGLTFSLYAMGWSRQAPGKERELVAANSWTGGSTYYADSVKGRFTISRDNAKNTVYLQMNSLKPEDTAVYYCNARYTLFARYGYDYWGQGTQVTVSS”, the “polyreactivity (PSR sort gate)” value is “low polyreactivity”.
In the case of “QVQLVESGGGLVQAGRSLRLSCAASGRIFGTYAMGWYRQAPGKERELVAAITQSGGRTYYADSVKGRFTISRDNAKNTVYLQMNSLKPEDSAVYFCNIVTYRGIGLGYDYWGHGTQVTVSS”, the “polyreactivity (PSR sort gate)” value is “high polyreactivity”.
The value for “QVQLVESGGGLVQAGRSLRLSCAASGRIFIWYRMGWYRQAPGKERELVSAITRRGGSTYYADSVKGRFTISRDNAKNTVYLQMNSLKPVDTAVYYCNADAIVSPYRLWTVTYSYWGQGTQVSVSS” was “low polyreactivity”; that for “QVQLVESGGGLVQAGRSLRLSCAASGRTFVYYAMGWYRQAPGKERELVATISSSDSTNYADSVKGRFTISRDNAKNTVYLQMNSLKPEDTAVYYCAAGPKGGGYYDPFDYWGQGTQVTVSS” was “low polyreactivity”.
The value for “QVQLVESGGGLVQAGRSLRLSCAASGSIFTYYAMGWYRQAPGKERELVAAINWSDSSTYNADSVKGRFTISRDNAKNTVYLQMNSLKPEDTAVYDCAATNYADGDYWGQGTQVTVSS” was “low polyreactivity”; that for “QVQLVESGGGLVQAGRSLRLSCAASGSILGGNAMGWYRQAPGKDRELVAAITFSGGGTYYADSVKGRFTISRDNAKNTVDFQMNSLKPEDTAVYYCAADKVGYTYEFDYWGQGTQVTVSS” was “low polyreactivity”; that for “QVQLVESGGGLVQAGRSLRLSCAASGSILLYYTMGWYRQAPGKERELVASITSGGRTYYADSVKGRFTISRDNAKNTVYLQMNSLKPEDTAVYYCAADVWKLYDYWGQGTQVTVSS” was “low polyreactivity”.
For “QVQLVESGGGLVQAGRSLRLSCAASGSTYGYYAMGWSRQAPGKERELVAAISSTGGRTYYADSVKGRFTISRDNAKNTVYVQMNSLKPEDTAVYYCAARQLSSHYDYWGQGPQVTVSS” the value was “low polyreactivity”; for “QVQLVESGGGLVQAGRSLRLSCAATGLIFLLNAMGWYRQAPGKERELVAVITRVGDTNYADSVKGRFTISRDNAKNTVYLQMNSLKPEDTAVYSCAATSLTYEGYYWRQGTQVTVSS”, “low polyreactivity”.
In the case of “QVQLVESGGGLVQAGRSLRLSCAPSGSTFKHNAMGWYRQAPGKERELVATITLRDGSTYYADSVKGRFTISRDNAKNTVYLQMNSLKPEDTAVYYCATYYSAINYGWSKTILYDYWGQGTQVTVSS”, the “polyreactivity (PSR sort gate)” value was “low polyreactivity”.
In the case of “QVQLVESGGGLVQAGRSLRLSCASSGSPFDPYGKGRYRQAPGKEWEWVAAITASGRTNYADSVKGRFTISRDTAKNTVYLQMNSLKPEDTAFYYCATRKELYFYRGYEYWGQGTQVTVSS”, the “polyreactivity (PSR sort gate)” value was “low polyreactivity”.
With “QVQLVESGGGLVQAGRSLRLSCPAYGFTFVINDMGWYRQAPGKEREFVADITSGGDTYYADSVKGRFTISRDNAKNTVYLQMNSLKPEDTAVFYCAADIYPDWIYLLYGYWGQGTQVTVSS”, the “polyreactivity (PSR sort gate)” value is “low polyreactivity”.
The value for “QVQLVESGGGLVQAGRSLRLTCAASGFTFADNTMGWYRQAPGKDRELVAAINDAGGTNYADSVKGRFTISRDNEKNTVYLQMNSLKAEDTAVYYCAADGRIYLTYHEMEYWGQGTQVTVSS” was “low polyreactivity”; that for “QVQLVESGGGLVQAGRSLRLTCAASGSIFYYYAMGWYRQAPGNERELVAAISSGGRTYYADSVKGRFTISRENANNNVYLQMKSLKTEDTAVYYCAASGGSYSVGRYYYWGQGSQVTVSS” was “high polyreactivity”; that for “QVQLVESGGGLVQAGSSLRLSCAASGGTFYINTKGWYRKAPGKERELVATITIVVSTKYADSVKGRFTISRDNAKNTVYLQMNSLKPEDTAVYYCAKDDVYRDSYLVFDGEMDYWGQGTQVTVSS” was “low polyreactivity”.
For the sequence “QVQLVESGGGLVQAGSSLRLSCAASGSIFPVYAMGWYRQSPGKERELVAAISCIGGGTYYADSVKGRFTISRDNAKNTVYLQMNSLKPEDTAVYYCAAVPYTSEYDYWGQGTQVTVSS”, the “polyreactivity (PSR sort gate)” value is “high polyreactivity”.
For the sequence “QVQLVESGGGLVQAGSSLRLSCAASGSTYAFYALGWYRQAPGKAMELVDAITSGGTTNYADSVKGRFTISRDNAKNTVYFQMISLKPEDTAVYYCNAYYLGWYRVRAVTGYDYWGQGTQVTLSS”, the “polyreactivity (PSR sort gate)” value is “low polyreactivity”.
For “QVQLVESGGGLVQAGVSLPLICAASGFTIAYYTMGWYRQAPGKERELVAAISRRGSSTYYADSVMGRFTISRDNAKNTVDLQMNSLKPEDTAVYYCNKYSVLTPGYYYWGQGTQVTVSS” the value was “high polyreactivity”; for “QVQLVESGGGLVQAGVSLRLRCASSGFTFRPYAIGWYRQAPGKERELVAAITSGDSTNYADSVKGRFTISRDNEKNTVYLQMNSLKREDTAVYYCAADSTGRPSVSYDYWGQGTQVTVSS”, “low polyreactivity”.
For “QVQLVESGGGLVQAGVSLRLSCAASARSFAWKAMVWYRQAPGKERELVAAITWSGGSTYYADSVKGRFTISRDNGKNTVYFQLNSLKQEDTAVYYCNKLYPYYATHTTRGLDYWGQGTQVTVSS” the value was “high polyreactivity”; for “QVQLVESGGGLVQAGVSLRLSCAASGFIFNIYAMGWYRQAPGKERELVAAISWRGGSTYYADSVKGRFTISRDNAKNTVYLQMNSLKPEYTAVYYCDVEDVWVGVFGDYDYWGEGTQVTVSS”, “low polyreactivity”; for “QVQLVESGGGLVQAGVSLRLSCAASGFIFVSYAMGWYRQAPGIERELVAAIDRIGGITYYADSVKGRFTISRDNAKNTVYLQMNSLKPVDTAVYYCAAAARYATVRVGREYYWGQGTQVTVSS”, “low polyreactivity”.
For “QVQLVESGGGLVQAGVSLRLSCAASGFIFYWYVMGWYRHAPGKERELVAGISKNGTNTYYADSVKGRFTISRDNAKNTVYLQMNSLKPEDTAVYYCAAAKCRTKYDYWGQGTQVTVSS” the value was “high polyreactivity”; for “QVQLVESGGGLVQAGVSLRLSCAASGFTFAYYAMGWYRQAPGKERELVAAITSGGRTNYADSVKGRFTISRDNAKNTGYLQMISLKAEDTAVSYCAKYRRGGSRHYSVFNHDYWGLGTQVTVSS”, “high polyreactivity”.
Consider “QVQLVESGGGLVQAGVSLRLSCAASGFTIKLYAMGWYRQAPGKERELVAAISSSGGSTYYADSVKGRFTISRDNAKNTVYLQMISLKPEDTAVYYCAARTRHVHYGYWGQGTQVTVSS”, for which the “polyreactivity (PSR sort gate)” value is recorded as “high polyreactivity”.
The value for “QVQLVESGGGLVQAGVSLRLSCAASGGIFGNYAMGGYRQAPAKERELVAAINGGTSTYYADSVKGRFTISRDNAKNTVYLQMNCLKPEDTAGYYCAADWRYLYYALDYWGQGTQVTVSS” was “low polyreactivity”; that for “QVQLVESGGGLVQAGVSLRLSCAASGGTFRPYAMGWYRQERGKERELVAAISYTGSTYYADSVKWRFTISRDNAKNTVYLQMNSLKPEDTGVYYCAKDFWYPPRFDYWGQGTQVTVSS” was “low polyreactivity”; that for “QVQLVESGGGLVQAGVSLRLSCAASGLTFGAYAMGWYRQAPGKERELVAAINVSGGSTYYADSVKGRFTISRDNAKNTVYLQMNSLKPEDTAVYYCNAGLVLGGIFIPLYDYWGQGTQVTVSS” was “high polyreactivity”.
The value for “QVQLVESGGGLVQAGVSLRLSCAASGLTFNYYDMGWYRQAPGKERELVAAISRSGTNTSYADSEKGRFTISRDNAKNTVYLQMNSLKPEDTAVYYCNADYYSRIVGVRIYDYWGQGTQVTVSS” was “low polyreactivity”.
For “QVQLVESGGGLVQAGVSLRLSCAASGLTFPGYAMGWYRQATGKQRELVAAISRRGGSTYYADSVKGRFTISRDNEKNTVYLKMNSLKTEDTAVYYCNAVIRRYFVPSSYDYWGQGTQVTVSS” the value was “high polyreactivity”; for “QVQLVESGGGLVQAGVSLRLSCAASGNTFWVYAKGSYRQAPGKARELVAAMTRGGSTNYEDSVKGRFTISRDNAKNTVYFQMNSLKPEDTAGYYCAAESFIYFPYKMDYWGQGTQVTVSS”, “low polyreactivity”.
Consider “QVQLVESGGGLVQAGVSLRLSCAASGRIFFPNGMGCYRQAPGKESELVATISRIGGSTYYADSVKGRFTISRDNAKNTVYLQMNSLKPEDTAVYYFAAQYSYGVYWTLPYGYNYWGQGTQVTVSS”, for which the “polyreactivity (PSR sort gate)” value is listed as “low polyreactivity”.
For “QVQLVESGGGLVQAGVSLRLSCAASGRIFHFYAMGCYRQAPGKERELVASITWRGGRTYYADSVKARFTISRDNAKNTVFLQMNSLKPEDTAVYYCAADFRSGFSSSTTPVQSDWGQGTQVTVSS” the value was “low polyreactivity”; for “QVQLVESGGGLVQAGVSLRLSCAASGRIFPTNAMGWYRQAPGKERELVAAIPVSGGSTYYADSVKGRFTISRDNAKNTVYLQMNSLKPEDTAVYYCAVDDRASVGSRLDHWGQGTQVTVSS”, “low polyreactivity”.
The value for “QVQLVESGGGLVQAGVSLRLSCAASGRIFSPYAMGWYRQAPGKERELVAAIDWDGGGTYYADSVKGRFTISRDNAKNTVYLQMNSLKPEDTAVYYCAAETDLANGTSPSDYCGQGTQVTVSS” was “low polyreactivity”; that for “QVQLVESGGGLVQAGVSLRLSCAASGRILHGYAMGWYRQAPGKEREFVAAITSSGGRTYYADSVKGRFTISRDNAKNTVYLQMNSLKPDDTAVYYCAADRPAYRTGDSKYDYWGLGTQVTVSS” was “low polyreactivity”; that for “QVQLVESGGGLVQAGVSLRLSCAASGRISVFYTMGWYRQAPGKERELVAVNRTSGGRTNYADSVKGRFTISRDNAKNTVDLQMNSLKPEDTAVYYCAARVVRYGYKYYYWGQGTQVTVSS” was “low polyreactivity”.
As for “QVQLVESGGGLVQAGVSLRLSCAASGRTLPRYAMGWYRQAPGKEREFVAAITFGGDSTYYADSVKGRFTISRDNAKNTVYLQMNSLKPEDTAVYSCAAKSFRGQRFGYWGQGTQVTVSS”, the “polyreactivity (PSR sort gate)” value is given as “high polyreactivity”.
For “QVQLVESGGGLVQAGVSLRLSCAASGSIFDFYAMGWYRQAPGKERELVATITASGGSTYYADSVKGRFTISRDNAKNTVYLQMNSLKPEDTAVYYCNADSVYWGQGTQVTVSS” the value was “low polyreactivity”.
For “QVQLVESGGGLVQAGVSLRLSCAASGSIFDSNAMGWYRQAPGKERELVATISSVGSTNYADSVKGRFTISRDNAKNTVYLQMNSLKPEDTAVYYCARVVDAQGYYSAASGGYYWGQGTQVSVSS” the value was “low polyreactivity”.
